# Test results as given in patent publication US11021532.
# Where two headings read alike, the source gives them in different places.
# B1: COVID19_P24_A09 (scFv, V domains shown)
# VH: QVQLVQSGAEVKKPGASVKVSCKASGYTFTDYYMQWVRQAPGQGLEWMGWIDPHSGATNYAHSFQGRVTMTRDTSTSTVYMELSSLRSEDTAVYYCARLEGGSYWTGYFDLWGRGTLVTVSS
# VL: EIVMTQSPATLSVSPGERATLSCRASQSVSSNYLAWYQQKPGQAPRLLIYAVSSRATGIPARFSGSGSGTEFTLTISSLQSEDFAVYYCQQYGSSPLTFGGGTKVEIKR
# B2: COVID19_P23_G10 (scFv, V domains shown)
# VH: QVQLVQSGAEVKKPGSSVKVSCKASGYTFTDYYIQWVRQAPGQGLEWMGWINPNSGGPNYAQKFQGRVTITADESTSTAYMELSSLRSEDTAVYYCARVDYGDYGRLEDYWGQGTLVTVSS
# VL: DIQMTQSPSSLSASVGDRVTITCRASQSIYSWLAWYQQKPGKAPKLLIYDASSLESGVPSRFSGSGSGTDFTLTISSLQPEDFATYYCQQLNSYPYTFGQGTKVEIKR
# B3: COVID19_P24_G09 (scFv, V domains shown)
# VH: QVQLVQSGAEVKKPGASVKVSCKASGYTFTRYYIHWVRQAPGQGLEWMGIINPSGGSTTYAQKFQGRVTMTRDTSTSTVYMELSSLRSEDTAVYYCAKGAPHDYIWGSYRPDAFDIWGQGTMVTVSS
# VL: DIQMTQSPSSLSASVGDRVTITCRASENIDSWLAWYQQKPGKAPKLLIYEASTLESGVPSRFSGSGSGTDFTLTISSLQPEDFATYYCHQYLSSPETFGQGTKVEIKR
# B4: COVID19_P23_F10 (scFv, V domains shown)
# VH: QVQLVQSGAEVKKPGASVKVSCKASGDTFSNYGISWVRQAPGQGLEWMGWMNPNSGGTNYAQKFQGRVTMTRDTSTSTVYMELSSLRSEDTAVYYCAIGTTVVTPFGYWGQGTLVNVSS
# VL: EIVMTQSPATLSVSPGERATLSCRASESVSSRYLAWYQQKPGQAPRLLIYGASTRATGIPARFSGSGSGTEFTLTISSLQSEDFAVYYCQQGYKNPPTFGQGTKVEIKR
# B5: COVID19_P24_H06 (scFv, V domains shown)
# VH: EVQLLESGGGLVQPGGSLRLSCAASGFSFSNYDMHWVRQAPGKGLEWVAVISYDGGFKLYADSVKGRFTISRDNAKNSLYLRMNSLRSEDTAVYYCARGQVRGSGPQVVVMDVWGKGTTVTVSS
# VL: DIQMTQSPSSLSASVGDRVTITCQASQGIRNDLGWYQQKPGKAPKLLIYDASRLQSGVPSRFSGSGSGTDFTLTISSLQPEDFATYYCQQYYSTPPLTFGQGTKVEIKR
# B6: COVID19_P24_D09 (scFv, V domains shown)
# VH: QVQLVQSGAEVKKPGASVKVSCKASGGTFSSYAISWVRQAPGQGLEWMGIVNPSSGSTTYAQKFQGRVTMTRDTSTSTVYMELSSLRSEDTAVYYCARVRGSAAIAMMDVWGQGTTVTVSS
# VL: DIQMTQSPSSLSASVGDRVTITCRASQDIRNELGWYQQKPGKAPKLLIYAASSLQSGVPSRFSGSGSGTDFTLTISSLQPEDFATYYCQQSYSTPPWTFGQGTKLEIKR
# B7: COVID19_P24_C10 (scFv, V domains shown)
# VH: QVQLVQSGAEVKKPGASVKVSCKASGYTFTENEMHWVRQAPGQGLEWMGIINPSGGSTSYAQKFQGRVTMTRDTSTSTVYMELSSLRSEDTAVYYCARDSGVDTATLRYYYYGMDVWGQGTTVTVSS
# VL: DIQMTQSPSSLSASVGDRVTITCQASQDISKYLNWYQQKPGKAPKLLIYGASTLSDGVPSRFSGSGSGTDFTLTISSLQPEDFATYYCQQGYSTPYSFGQGTKLEIKR
# B8: COVID19_P11_D08 (scFv, V domains shown)
# VH: QVQLVQSGAEVKKPGASVKVSCKASGYTFTENEMHWVRQAPGQGLEWMGIINPSGGSTSYAQKFQGRVTMTRDTSTSTVYMELSSLRSEDTAVYYCARDSGVDTATLRYYYYGMDVWGQGTTVTVSS
# VL: DIQMTQSPSSLSASVGDRVTITCQASQDISKYLNWYQQKPGKAPKLLIYGASTLSDGVPSRFSGSGSGTDFTLTISSLQPEDFATYYCQQGYSTPYSFGQGTKLEIKR
# B9: COVID19_P24_C06 (scFv, V domains shown)
# VH: QVQLVQSGAEVKKPGASVKVSCKASGYIFTSYPIHWVRQAPGQGLEWMGWMNPNSGNTGYAQKFQGRVTMTRDTSTSTVYMELSSLRSEDTAVYYCARDRGSYDTDAFDIWGQGTMVTVSS
# VL: DIQMTQSPSSLSASVGDRVTITCRASQDISNYLNWYQQKPGKAPKLLIYAASNLQSGVPSRFSGSGSGTDFTLTISSLQPEDFATYYCQQANSFPSTFGQGTKLEIKR
# B10: COVID19_P11_H07 (scFv, V domains shown)
# VH: QVQLVQSGAEVKKPGASVKVSCKASGYTFTSYDINWVRQAPGQGLEWMGWMNSNSGSTGYAQKFQGRVTMTRDTSTSTVYMELSSLRSEDTAVYYCARGWMAYDAFDIWGQGTMVTVSS
# VL: DIQMTQSPSSLSASVGDRVTITCQASQSIYNYLNWYQQKPGKAPKLLIYDASNLETGVPSRFSGSGSGTDFTLTISSLQPEDFATYYCQQAISFPLTFGGGTKVEIKR
# B11: COVID19_P24_B09 (scFv, V domains shown)
# VH: QVQLVQSGAEVKKPGSSVYVSCKASGYTFTSYGISWVRQAPGQGLEWMGGIIPMFGTTNYAQKFQGRVTITADKSTSTAYMELSSLRSEDTAVYYCARDRGDTIDYWGQGTLVTVSS
# VL: DIQMTQSPSSLSASVGDRVTITCRASQGISNNLNWYQQKPGKAPKLLIYAASSLESGVPSRFSGSGSGTDFTLTISSLQPEDFATYYCQQGNGFPLTFGPGTKVDIKR
# B12: COVID19_P24_F11 (scFv, V domains shown)
# VH: EVQLLESGGGLVQPGGSLRLSCAASGFTFSGSAMHWVRQAPGKGLEYVSAISRNGGTTYYADSVKGRFTISRDNSKNTLYLQMNSLRAEDTAVYYCAKDGTLITTTLDYWGQGTLVTVSS
# VL: DIQMTQSPSSLSASVGDRVTITCRASQSIGYYLNWYQQKPGKAPKLLIYAASSLQSGVPSRFSGSGSGTDFTLTISSLQPEDFATYYCQQSYTTPLTFGGGTKVEIKR
# B13: COVID19_P11_D12 (scFv, V domains shown)
# VH: QVQLVQSGAEVKKPGASVKVSCKASGYTFTENEMHWVRQAPGQGLEWMGIINPSGGSTSYAQKFQGRVTMTRDTSTSTVYMELSSLRSEDTAVYYCAKTRYGGNSRSRYYYYGMDVWGQGTTVTVSS
# VL: DIQMTQSPSSLSASVGDRVTITCRASQHISSYLNWYQQKPGKAPKLLIYAASALQSGVPSRFSGSGSGTDFTLTISSLQPEDFATYYCQQGYGTPYTFGQGTKVEIKR
# B14: COVID19_P24_A11 (scFv, V domains shown)
# VH: QVQLVQSGAEVKKPGASVKVSCKASGYTFTENEMHWVRQAPGQGLEWMGIINPSGGSTSYAQKFQGRVTMTRDTSTSTVYMELSSLRSEDTAVYYCARDLMDIVVVPWLGGMDVWGQGTTVTVSS
# VL: DIQMTQSPSSLSASVGDRVTITCRASQAITNYLAWYQQKPGKAPKLLIYAASSLQSGVPSRFSGSGSGTDFTLTISSLQPEDFATYYCQQYYSYPPTFGQGTKLEIKR
# B15: COVID19_P11_G03 (scFv, V domains shown)
# VH: QVQLVQSGAEVKKPGASVKVSCKASGYTFTSYEINWVRQAPGQGLEWMGIINPSDGSSTYAQKFQGRVTMTRDTSTSTVYMELSSLRSEDTAVYYCARDRGYSYDHDQIYYYYGMDVWGQGTTVTVSS
# VL: DIQMTQSPSSLSASVGDRVTITCRVSQGISSYLNWYQQKPGKAPKLLIYAASILQSGVPSRFSGSGSGTDFTLTISSLQPEDFATYYCQQGYSTPFTFGPGTKVDIKR
# B16: COVID19_P24_H04 (scFv, V domains shown)
# VH: QVQLVQSGAEVKKPGASVKVSCKASGYTFTDYHMHWVRQAPGQGLEWMGWMNPNSGNTSYAQKFQGRVTMTRDTSTSTVYMELSSLRSEDTAVYYCAGMGMGRDGYNSRAFDIWGQGTMVTVSS
# VL: DIQMTQSPSSLSASVGDRVTITCRASQSISTYLNWYQQKPGKAPKLLIYAASTLQSGVPSRFSGSGSGTDFTLTISSLQPEDFATYYCQQSYSMPLTFGQGTKVEIKR
# B17: COVID19_P11_H02 (scFv, V domains shown)
# VH: QVQLVQSGAEVKKPGASVKVSCKASGGTFTSYHMHWVRQAPGQGLEWMGWMNPNSGNTGYALKFQGRVTMTRDTSTSTVYMELSSLRSEDTAVYYCASFERFGELVPETFDYWGQGTLVTVSS
# VL: DIQMTQSPSSLSASVGDRVTITCRASQGIRNDLAWYQQKPGKAPKLLIYAASSLQSGVPSRFSGSGSGTDFTLTISSLQPEDFATYYCQQSYSTPPTFGQGTKLEIKR
# How the values were obtained:
# [1] = biological target: SARS-CoV-2 Receptor Binding Domain (RBD) protein (SARS-CoV-2); experiment: SPR (Carterra LSA), scFv captured via anti-V5, RBD as analyte, 1:1 fit
# [2] = biological target: SARS-CoV-2 Receptor Binding Domain (RBD) protein (SARS-CoV-2); experiment: SPR (Carterra LSA), scFv captured via anti-V5, RBD as analyte
# [3] = biological target: SARS-CoV-2 Receptor Binding Domain (RBD) protein (SARS-CoV-2)
Binder,Kd [1] [nM],koff [1] [s⁻¹],kon [1] [M⁻¹ s⁻¹],Kd [2] [nM],Kd [3] [nM]
B1,1.51,0.000229,152000,< 50,–
B2,0.37,5.7e-05,154000,< 50,–
B3,1.56,0.000512,329000,< 50,–
B4,7.86,0.00077,98000,< 50,–
B5,0.5,5.7e-05,120000,< 50,–
B6,0.5,5.7e-05,114000,< 50,–
B7,0.88,0.000487,553000,< 50,–
B8,4.7,0.00053,110000,< 50,–
B9,0.3,5.7e-05,228000,< 50,–
B10,0.5,5.7e-05,110000,–,< 50
B11,27.5,0.0139,508000,< 50,–
B12,0.46,0.00028,616000,< 50,–
B13,4.3,0.00034,79000,< 50,–
B14,1.95,0.000308,158000,< 50,–
B15,6.45,0.00064,99000,< 50,–
B16,4,0.00068,170000,< 50,–
B17,2.2,0.00071,320000,< 50,–
